What was measured:
HLA-A*02:01 [1] = test: IEDB peptide-MHC binding, purified MHC/competitive/radioactivity; ≥ and ≤ were set here for values at or beyond the usual limits of such assays; conditions: source organism: Toxoplasma gondii
HLA-A*11:01 [2] = test: as above; conditions: source organism: Toxoplasma gondii
HLA-B*07:02 = test: as above; conditions: source organism: Toxoplasma gondii
HLA-A*32:07 = test: IEDB peptide-MHC binding, purified MHC/competitive/fluorescence; filed as Kd, often an IC50 or EC50 that approximates it; ≥ and ≤ were set here for values at or beyond the usual limits of such assays
HLA-B*15:42 = test: as above
HLA-B*39:01 [3] = test: as above; conditions: source organism: Escherichia coli B171
HLA-B*40:01 [4] = test: as above; conditions: source organism: Escherichia coli B171
HLA-B*40:13 = test: as above; conditions: source organism: Escherichia coli B171
HLA-B*45:06 = test: as above
HLA-B*83:01 = test: as above
HLA-B*15:01 = test: IEDB peptide-MHC binding, purified MHC/direct/fluorescence; filed as Kd, often an IC50 or EC50 that approximates it; ≥ and ≤ were set here for values at or beyond the usual limits of such assays
HLA-B*35:01 [5] = test: as above; conditions: source organism: Salmonella enterica subsp. enterica serovar Typhi
HLA-B*15:17 = test: IEDB peptide-MHC binding, purified MHC/competitive/fluorescence; filed as Kd, often an IC50 or EC50 that approximates it; ≥ and ≤ were set here for values at or beyond the usual limits of such assays
HLA-B*44:02 = test: as above; conditions: source organism: Salmonella enterica subsp. enterica serovar Typhi
HLA-B*57:01 [6] = test: as above; conditions: source organism: Salmonella enterica subsp. enterica serovar Typhi
HLA-B*58:01 = test: IEDB peptide-MHC binding, purified MHC/direct/fluorescence; filed as Kd, often an IC50 or EC50 that approximates it; ≥ and ≤ were set here for values at or beyond the usual limits of such assays
HLA-A*32:15 = test: IEDB peptide-MHC binding, purified MHC/competitive/fluorescence; filed as Kd, often an IC50 or EC50 that approximates it; ≥ and ≤ were set here for values at or beyond the usual limits of such assays; conditions: source organism: Mycobacterium tuberculosis variant bovis BCG str. Pasteur 1173P2
HLA-A*68:23 = test: as above; conditions: source organism: Mycobacterium tuberculosis variant bovis BCG str. Pasteur 1173P2
HLA-B*35:01 [7] = test: as above; conditions: source organism: Mycobacterium tuberculosis variant bovis BCG str. Pasteur 1173P2
HLA-B*51:01 = test: as above; conditions: source organism: Mycobacterium tuberculosis variant bovis BCG str. Pasteur 1173P2
HLA-A*01:01 = test: IEDB peptide-MHC binding, purified MHC/direct/fluorescence; filed as Kd, often an IC50 or EC50 that approximates it; ≥ and ≤ were set here for values at or beyond the usual limits of such assays; conditions: source organism: Camelpox virus M-96
HLA-A*02:01 [8] = test: as above; conditions: source organism: Camelpox virus M-96
HLA-A*26:01 = test: as above; conditions: source organism: Variola virus
HLA-A*31:01 = test: as above; conditions: source organism: Camelpox virus M-96
HLA-A*80:01 = test: as above; conditions: source organism: Camelpox virus M-96
HLA-B*15:09 = test: as above; conditions: source organism: Variola virus
HLA-B*27:05 = test: as above; conditions: source organism: Camelpox virus M-96
HLA-B*39:01 [9] = test: as above; conditions: source organism: Variola virus
HLA-B*40:01 [10] = test: as above; conditions: source organism: Camelpox virus M-96
HLA-B*46:01 = test: as above
HLA-B*48:01 = test: as above; conditions: source organism: Camelpox virus M-96
HLA-B*57:01 [11] = test: as above; conditions: source organism: Camelpox virus M-96
HLA-A*03:01 = test: IEDB peptide-MHC binding, purified MHC/competitive/fluorescence; filed as Kd, often an IC50 or EC50 that approximates it; ≥ and ≤ were set here for values at or beyond the usual limits of such assays; conditions: source organism: Taterapox virus
HLA-A*11:01 [12] = test: as above; conditions: source organism: Taterapox virus
HLA-A*69:01 = test: as above; conditions: source organism: Taterapox virus
HLA-B*15:02 = test: IEDB peptide-MHC binding, purified MHC/direct/fluorescence; filed as Kd, often an IC50 or EC50 that approximates it; ≥ and ≤ were set here for values at or beyond the usual limits of such assays; conditions: source organism: Convict Creek 107 virus
[13] = source organism: Escherichia coli B171
[14] = source organism: Salmonella enterica subsp. enterica serovar Typhi
[15] = source organism: Mycobacterium tuberculosis variant bovis BCG str. Pasteur 1173P2
[16] = source organism: Camelpox virus M-96
[17] = source organism: Convict Creek 107 virus

AVVSLLRLLK
IC50 (HLA-A*02:01 [1]): 11300 nM | IC50 (HLA-A*11:01 [2]): 6.5 nM | IC50 (HLA-B*07:02): ≥ 50000 nM

HELSLFWPL
Kd (HLA-A*32:07; [13]): 58.2 nM | Kd (HLA-B*15:42; [13]): ≥ 5000 nM | Kd (HLA-B*39:01 [3]): 0.2 nM | Kd (HLA-B*40:01 [4]): 2.5 nM | Kd (HLA-B*40:13): 30.2 nM | Kd (HLA-B*45:06; [13]): ≥ 5000 nM | Kd (HLA-B*83:01; [13]): ≥ 5000 nM

IVLLCYGGW
Kd (HLA-B*15:01; [14]): 6180 nM | Kd (HLA-B*35:01 [5]): 2530 nM | Kd (HLA-B*15:17; [14]): 175 nM | Kd (HLA-B*44:02): ≥ 20000 nM | Kd (HLA-B*57:01 [6]): 498 nM

MTMITPPTF
Kd (HLA-B*58:01; source organism: Mycobacterium tuberculosis): 51.3 nM | Kd (HLA-A*32:07; [15]): 9.3 nM | Kd (HLA-A*32:15): 19.2 nM | Kd (HLA-A*68:23): 4.4 nM | Kd (HLA-B*15:42; [15]): ≥ 5000 nM | Kd (HLA-B*35:01 [7]): 111 nM | Kd (HLA-B*45:06; [15]): ≥ 5000 nM | Kd (HLA-B*51:01): ≥ 20000 nM | Kd (HLA-B*83:01; [15]): ≥ 5000 nM

NTDAFSREY
Kd (HLA-A*01:01): 7 nM | Kd (HLA-A*02:01 [8]): ≥ 20000 nM | Kd (HLA-A*26:01): 984 nM | Kd (HLA-A*31:01): ≥ 20000 nM | Kd (HLA-A*80:01): 567 nM | Kd (HLA-B*15:01; [16]): ≥ 20000 nM | Kd (HLA-B*15:09): ≥ 20000 nM | Kd (HLA-B*27:05): ≥ 20000 nM | Kd (HLA-B*39:01 [9]): ≥ 20000 nM | Kd (HLA-B*40:01 [10]): ≥ 20000 nM | Kd (HLA-B*46:01; [16]): ≥ 20000 nM | Kd (HLA-B*48:01): ≥ 20000 nM | Kd (HLA-B*57:01 [11]): ≥ 20000 nM | Kd (HLA-B*58:01; [16]): ≥ 20000 nM | Kd (HLA-A*03:01): ≥ 20000 nM | Kd (HLA-A*11:01 [12]): ≥ 20000 nM | Kd (HLA-A*69:01): ≥ 20000 nM | Kd (HLA-B*15:17; source organism: Taterapox virus): ≥ 20000 nM

VLFKTESGF
Kd (HLA-B*15:01; [17]): 11.8 nM | Kd (HLA-B*15:02): 47 nM | Kd (HLA-B*46:01; [17]): ≥ 20000 nM
